Measurements from the nanobody polyreactivity screen of Harvey et al. (2022).

experiment: yeast display, Sf9 membrane polyspecificity reagent, FACS + sequencing; frameworks hold sequencing errors
Outline: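 Galactose-induced (36–48 hours) yeast carrying a synthetic nanobody display library were exposed to 10% biotinylated, detergent-solubilized Sf9 membrane reagent at 4 °C for 1 hour. FACS followed streptavidin microbead enrichment, using low and high (top ~1%) gates for expression (anti-HA) and reagent binding (streptavidin). Colony PCR, MiSeq 2 × 250 sequencing and CDR-length filtering followed. Labels for polyreactivity reflect the gate of origin.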

Sequence | polyreactivity (PSR sort gate)
QVQLVESGGGLVQAGGTLRLSCAASGSIFGSYAMGWYRQAPGKERELVAAISGSGGRTYYADSVKGRFTISRDNAKNTVYVQMNSLKPEDTAVYYCAAAYPRVTYKYGYYWGQGTHVTVSS | high polyreactivity
QVQLVESGGGLVQAGGTLRLSCAASGSIFYYYAMGWYRQAPGKERELVDTISSSSGSTYYADSVKGRFTISRDNAKNTVYLQMISLKPEDTAVYYCAAPLPHRGYYEGYWGQRTQVTVSS | low polyreactivity
QVQLVESGGGLVQAGGTLRLSCAASGSTFGWYAMGWYRQAPGKVREFVAAIRGGGSSTYYADSVKWRFTISRDNAKNSVSLQKNSLKQEVTAVYYCAAVTSQLYGKRYYYWGQGTQGTVSS | high polyreactivity
QVQLVESGGGLVQAGGTLRLSCAASGSTFGYYAMGWYRQAPGKERELVAAISWRGGSTYYADSVKGRFTISRYNANNTVYLQMNSLKPEDTAVYYCAAPVGNYGSFDYWGQGTKVTVSS | low polyreactivity
QVQLVESGGGLVQAGGTLRLSCAASGSTFTDYDMGWYRQAPGQERELVAAITSGGSTNYADSVKGRFTISRDNAKNTVYLQMNSLKPEDTAVYYCAAADADRKYDFWGQGTQVTVSS | low polyreactivity
QVQLVESGGGLVQAGGTLRLSCAASGSTFWRNTMEWYRQAPGKERELVAAITGCGGRTYYADSVKGRFTISRDNAKNTVYLQMNSLKPEDTAVYYCAADGRGVHYDYWGQGSQVTVSS | high polyreactivity
QVQLVESGGGLVQAGGTLRLSCAASGSTSSNNAMGWYRQAPGKARELVADISTNGDSTSYADSVKGRFTISRDNAKNPVYLLMNSLKPEDTAVYYSAASTYVTYWEYDYWGQGTQVTVSS | low polyreactivity
QVQLVESGGGLVQAGGTLRLSCAASGYIFDRNAMGWYRPAPGKERELVAAITKRGGSTYYADSVKGRFTISRDNAKNTVYLQMNSLKPEETAVYYCNALARSSRYDYWGQGTQVTVSS | low polyreactivity
QVQLVESGGGLVQAGGTLRLSCAATGRILHIYAMGWYRQAPGKERELVAVISTGGGDTYYADSVKGRFTISRDNANNTVYLQMNSRKPEDTAVYYCAADGYWAGYGYDYWGQGTQVTVSS | high polyreactivity
QVQLVESGGGLVQAGGTLRLSCAPSGRIFGIYDMGWYRQAPGKERELVADIDVSDGSTYYADSVKGRFTISRDNAKNTVYLQMNSMKPEDTAVYYCNAEDSSRWYDWYLHDYWGQGTQVTVSS | high polyreactivity
QVQLVESGGGLVQAGGTLRLSCAPSGYTFVYNAMGWYRQAPGKEREFVAAISWSGTSTRYADSVKGRFTISRDNAKNTVYLQMNSLKPEDTAVYYCAARRRSAQSGSYNHWGQGTQVTVST | high polyreactivity
QVQLVESGGGLVQAGGTLRLSCAPYGIILYRIGMGWYRQAPGKERELVAAISWSTGSTYYADSEKGRFTISRDNAKNTVYLQMNSLKPEDTAVYYCATDYGGYSFGMYYWGQGTQVTVSS | low polyreactivity
QVQLVESGGGLVQAGGTLRLSCASSGRIFYHYAMGWDRQAPGKERELVAAISTHTGTTYYADSVKGRFTISRDNAKNTVYLQMNSLKPEDTAVYYCAKRSRYGYGKSYDYWGQGTQVTVST | high polyreactivity
QVQLVESGGGLVQAGGTLRLSCDPSGRTFYYYAMGWYRQAPGKERELVATIRSTGSTNYADSVKGRFTISRDNAKNTVYLKMNSLKPEDTAVYYCAAKPLQGVRRVEYWGQGTQVTVSS | high polyreactivity
QVQLVESGGGLVQAGGTLRLSCSASGSTFAINAMGWYRQPPGKERELVATITSGSNTNNADSVKGRFTISRDNAKNTVDLQMNSLNPEDTAVYYCAAAFGYRFHYGYFYIYDYWGQGTQVTVSS | high polyreactivity
QVQLVESGGGLVQAGGTLSLSCAASGRTFVSYTMGWYRQAPGKERELVAAINYSVASTNYADSVKGRFTISRDNAKNSVYLQMNSLKPEDTAVYYCNRASAVWGQGTQVTVSS | low polyreactivity
QVQLVESGGGLVQAGRSLRLICAASGFTFYSYAMGWYRQAPGKERELVANITIGGSTYADSVKGRFTISRDNAKNTVYLQMNSLKPEDTAVYYCARGYRVVGDPLYGDYDYWGQGTQVTVSS | low polyreactivity
QVQLVESGGGLVQAGRSLRLNCAASGSIFYYYAMGWYRPAPGKERELVAAISRNGGSTSYADSVKGRFTISRDNAKNTVYLQMNSLKPEDTAVYYCNTYGGYKYDYWGQGTQVTVSS | low polyreactivity
QVQLVESGGGLVQAGRSLRLSCAASGFIYPYNALGWYRQAPGKERELVAGITWRGASTYYADSVKGRFTISRDNAKNSVYLQMNRLKPEDTAVDYCAAAYRRVTTKTFKLDYWGQGTQVTVSS | high polyreactivity
QVQLVESGGGLVQAGRSLRLSCAASGITFDDYDMGCYRQAPGKEREFVAAISFSGSSTYYADSVKGRFTISRDNAKNTVYLLMNSLKPEDTAVYYCNADYVYSGCLYYGKDYWFDYWGHGTQVTVSS | low polyreactivity
QVQLVESGGGLVQAGRSLRLSCAASGITFQYYAMGGYRQAPGKERELVAAISSGGSTYYADSVKGRFTISRDNAKNTVYLQMNSLKPEDTAVYYCAAKRVFFGLNYDYWGQGTQVTVSS | high polyreactivity
QVQLVESGGGLVQAGRSLRLSCAASGITFYKNAMGWYRQAPGKERELVAAISSGGATTYADSVKGRFTISRDNAKNTVYLQMNSLKPEDSAVYYCAAVTRDYRNERRRQRYFYWGQGTQVTVSS | high polyreactivity

Sequence | polyreactivity (PSR sort gate)
QVQLVESGGGLVQAGRSLRLSCAASGLTFGQYAMGWYRQAPGIERELVAAMNWSGDGTYYADSVKGRFTISRDNAKNTVYLQMKSLKPEDTAVYYCNAGGRRYYYIGYDYWGQGTQLTVSS | low polyreactivity
QVQLVESGGGLVQAGRSLRLSCAASGLTFRVYPMGWYRQAPGKDRELVAAITGGGGSTYADSVKGRFTISRDNAKNTVYLQMYSLKPEDTAVSYCNKKGYYYKFDYWGQGTQVTVSS | low polyreactivity
QVQLVESGGGLVQAGRSLRLSCAASGRIFNYYSMGWYRQAPGKERELVAAISSGGSTYYADSVKGRFTISRDYAKNTVYLQMNSLKPEDTAVYYCAAAYGDYGYWGQGTLVTVSS | high polyreactivity
QVQLVESGGGLVQAGRSLRLSCAASGRIFRGYAMGWYRPAPGIERELVAAISWSGGSTNYADSVKGRFTISRDNAKNSVYLQMNSLKPEDTEVYYCAARAYRVANAGYTYWGQGTQLTVSS | high polyreactivity
QVQLVESGGGLVQAGRSLRLSCAASGRIFVPYVMGWYRQAPGKERELVASISDSDTSTYYADSVKGRFTISRDNAKNTVYVQMNSLKPEDTAVYYCNVDYWGQGTQVTVSS | low polyreactivity
QVQLVESGGGLVQAGRSLRLSCAASGRISTRYAMGWYRQAPGKERELVAAITIGTDTTYADSVKGRFTISRDNAKNTVYLQMNTLKPEDTAVYYCAAERYILARFEYWGQGTQVTVSS | low polyreactivity
QVQLVESGGGLVQAGRSLRLSCAASGRTSAYYAMGWYRQPPGKERELVAGITRGGRTNYADSVKGRFTISRDNAKNTVYLQLNSLKPEDTAVYYCAAKYVYYLNSRTSGYWGQGSQVTVSS | high polyreactivity
QVQLVESGGGLVQAGRSLRLSCAASGSIFAWYGMGWYRQAPGKERELFAAISTDGSTNYADSVKGRFTISRDNAKNSVYLQMISLKREDTAVYYCAKKSSLYYPERFDYWGQGTQGTVSS | low polyreactivity
QVQLVESGGGLVQAGRSLRLSCAASGSTFKVYAMGWYRQAPGKERELVAAISASDGSTYYPDSVKGRFTISRDNAKKTVYVQMYRLKPEDTAVYYFAAVLYSDKATYDYWGQGTQVTVSS | low polyreactivity
QVQLVESGGGLVQAGRSLRLSCAASGSTFPVNTMGWYRQAPGKDRELVAAITKNGANTYYADSVKGRFTISRDNAKNTVYLQMNSLKPEDTAVYYCAARYVYGKSYSRWLVELDYWGQGTQVTVSS | low polyreactivity
QVQLVESGGGLVQAGRSLRLSCAASGSTFYAYTMGWYRKAPGKERELVAGISRRGGTTYYADSVKGRFTISRDNAKNTVYLQMNSLKPEDTAVYHCATRSWELGDYWGQGTQVTVSS | low polyreactivity
QVQLVESGGGLVQAGRSLRLSCAASGSTFYGYAMGWYRQPPGKERELVAAITSSGGSTYYADSVKGRFTISRDNAKITVYVQLNSLKPEDTAVYYCNAKRAPWGTLYNYWGQGTQVTVSS | high polyreactivity
QVQLVESGGGLVQAGRSLRLSCAASGSTILYYAMGWYRQAHGKERELVARITTRGSRTYYADSVKGRFTISRDNAKNTVYLQMNSLKPEDTAVYYCNKVRPGYGVTYLVGYWGQGTQVTVSS | high polyreactivity
QVQLVESGGGLVQAGRSLRLSCAASGSTLLWNAMGWYRQAPGKERELVAVISWSGGSTYYGDSVKGRFTISRDNAKNTVYLQMNSLKPEDTAVYYCAHDYDGYVWDTEYDYWGQGTQVTVSS | low polyreactivity
QVQLVESGGGLVQAGRSLRLSCAASGSTYAKYAMGWYRQAPGKEREVVAVISRTGTITRYADSEKGRFTISRDNAKNTVYLQMNSLKPEDTAVYYCAATIRAYNQHGFLYPYYYWGQGNQVTVSS | high polyreactivity
QVQLVESGGGLVQAGRSLRLSCAASGYIFDTNAMGWYRQAPGKERELVAAITKSGGSTYYADSVKGRFTISRDNAKNTVYLHMNSLKPEDTAVYYCAARGTSKRWSLYDYWGQGTQVTVSS | low polyreactivity
QVQLVESGGGLVQAGRSLRLSCAAYGYTFEFYAMGWYRQAPGKEREFVAGINSSGVTTYYADSVKGRFTIARDNAKYTVYLQMNSLKPVYSAVYYCAATDVVYTWFFLVYIPYDYWGQGTQVTVSS | low polyreactivity
QVQLVESGGGLVQAGRTLRLSCAASGNIFDLNAMGWYRPAPGKERELVAAIDRGGGSTYYADSVKGRFTISRDNATNTVYLHMNSLKTEDTAVYYCSAVDQESNPAGGYWGQGSQVTVSS | low polyreactivity
QVQLVESGGGLVQAGSSLRLSCAASGRTFTGNAMGRYRQAPGKERELVADISSDGSTNYADSVKGRFTISRDNAKNTVYLQMNSLKPEDTAVYYCAADPFWTYYIDYDYWGQGTQVTVSS | low polyreactivity
QVQLVESGGGLVQAGSSLRLSCAASGSTLRTNAMGWYRQAPGKEREFVADISKRGGRTYYADSVKGRFTISRDNAKNTVYLQMNSLKPEDTAVYYCAKLVSLAGRIYGYWGQGTQVTVSS | high polyreactivity
QVQLVESGGGLVQAGVILRLSCAASGLIFGLYAMGWYRQAPGKERELVAAISYRTDSTYADSVKGRFTISRDNAKNTVYLQMNSLKPEDTAVYYCAADLRVSVRYYYWGQGTQVTVSS | low polyreactivity
